“And” between values parts separate entries of the source, which are not always exact repeats. Identical values can stand only once.
Biological target: Death Receptor 5 (UniProt O14763)
Test: cell-based or functional assay

| Substance | IC50 of cell killing (cell viability, CellTiter-Glo, 24 h), CAPAN-1 cells | IC50 of cell killing (cell viability, CellTiter-Glo, 24 h), Colo 205 cells | IC50 of cell killing (cell viability, CellTiter-Glo, 24 h), H2122 cells | IC50 of cell killing (cell viability, CellTiter-Glo, 24 h), H2228 cells | IC50 of cell killing (cell viability, CellTiter-Glo, 24 h), HT29 cells | IC50 of cell killing (cell viability, CellTiter-Glo, 24 h), HTC15 cells | IC50 of cell killing (cell viability, CellTiter-Glo, 24 h), MDA-BD231 cells | IC50 of cell killing (cell viability, CellTiter-Glo, 24 h), SW948 cells | also measured |
| --- | --- | --- | --- | --- | --- | --- | --- | --- | --- |
| Conatumumab Multabody (from UniProt P02792 91-175) | 0.002 µg/mL and 0.00087 nM | 0.16 pM | 0.00015 µg/mL and 6.4e-05 nM | 0.031 µg/mL and 0.013 nM | 0.0024 µg/mL and 0.001 nM | 0.00053 µg/mL and 0.00023 nM | 0.00071 µg/mL and 0.00031 nM | 0.16 pM |  |
| Tigatuzumab Multabody (from UniProt P02792 1-175; P02792 1-175) | 0.0026 µg/mL and 0.0011 nM | 0.00085 µg/mL and 0.00037 nM | 0.00014 µg/mL and 5.9e-05 nM | 0.015 µg/mL and 0.0067 nM | 0.0084 µg/mL and 0.0037 nM | 0.002 µg/mL and 0.00087 nM | 0.00052 nM and 0.0012 µg/mL | 0.00037 µg/mL and 0.00016 nM | Fold-change of killing IC50, MB vs parental IgG, mass basis, CAPAN-1 cells: > 5000 fold; Fold-change of killing IC50, MB vs parental IgG, mass basis, Colo 205 cells: > 11800 fold; Fold-change of killing IC50, MB vs parental IgG, mass basis, H2122 cells: 2940 fold; Fold-change of killing IC50, MB vs parental IgG, mass basis, H2228 cells: > 651 fold; Fold-change of killing IC50, MB vs parental IgG, mass basis, HT29 cells: > 1190 fold; Fold-change of killing IC50, MB vs parental IgG, mass basis, HTC15 cells: > 5000 fold; Fold-change of killing IC50, MB vs parental IgG, mass basis, MDA-BD231 cells: > 8400 fold; Fold-change of killing IC50, MB vs parental IgG, mass basis, SW948 cells: > 27000 fold; Fold-change of killing IC50, MB vs parental IgG, molar basis, CAPAN-1 cells: > 59300 fold; Fold-change of killing IC50, MB vs parental IgG, molar basis, Colo 205 cells: > 181000 fold; Fold-change of killing IC50, MB vs parental IgG, molar basis, H2122 cells: 45600 fold; Fold-change of killing IC50, MB vs parental IgG, molar basis, H2228 cells: > 10000 fold; Fold-change of killing IC50, MB vs parental IgG, molar basis, HT29 cells: > 18300 fold; Fold-change of killing IC50, MB vs parental IgG, molar basis, HTC15 cells: > 77000 fold; Fold-change of killing IC50, MB vs parental IgG, molar basis, MDA-BD231 cells: > 129000 fold; Fold-change of killing IC50, MB vs parental IgG, molar basis, SW948 cells: > 416000 fold |

From US20240182544A1
